Measurements published in US20210388087A1 (Chugai, published 2021).
Numbering of substitutions follows the chain as printed.

B1: GLS3000 N53S (antibody, name in Kabat numbering, V domains shown)
VH: QVQLVESGGGVVQPGRSLRLSCAASGFTFSNAWMHWVRQAPGKGLEWVAQIKAKSNNYATYYAESVKGRFTISRDDSKNSLYLQMNSLKTEDTAVYYCRYVHYGAYYGVDAWGQGTTVTVSS
VL: DIVMTQSPLSLPVTPGEPASISCRSSQSLVHSNRNTYLHWYQQKPGQAPRLLIYKVSSRFSGVPDRFSGSGSGTDFTLKISRVEAEDVGVYYCGQGTQVPYTFGQGTKLEIK
notes: one-arm IgG as m2
B2: GLS3000 N53T (antibody, name in Kabat numbering, V domains shown)
VH: B1 VH
VL: B1 VL with S58T
notes: one-arm IgG as m2
B3: GLS3000 N53V (antibody, name in Kabat numbering, V domains shown)
VH: B1 VH
VL: B1 VL with S58V
notes: one-arm IgG as m2
B4: GLS3000 N53W (antibody, name in Kabat numbering, V domains shown)
VH: B1 VH
VL: B1 VL with S58W
notes: one-arm IgG as m2
B5: GLS3000 N53Y (antibody, name in Kabat numbering, V domains shown)
VH: B1 VH
VL: B1 VL with S58Y
notes: one-arm IgG as m2
B6: GLS3000 P95A (antibody, name in Kabat numbering, V domains shown)
VH: B1 VH
VL: B1 VL with S58N, P100A
notes: one-arm IgG as m2
B7: GLS3000 P95D (antibody, name in Kabat numbering, V domains shown)
VH: B1 VH
VL: B1 VL with S58N, P100D
notes: one-arm IgG as m2
B8: GLS3000 P95E (antibody, name in Kabat numbering, V domains shown)
VH: B1 VH
VL: B1 VL with S58N, P100E
notes: one-arm IgG as m2
B9: GLS3000 P95G (antibody, name in Kabat numbering, V domains shown)
VH: B1 VH
VL: B1 VL with S58N, P100G
notes: one-arm IgG as m2
B10: GLS3000 P95L (antibody, name in Kabat numbering, V domains shown)
VH: B1 VH
VL: B1 VL with S58N, P100L
notes: one-arm IgG as m2
B11: GLS3000 P95S (antibody, name in Kabat numbering, V domains shown)
VH: B1 VH
VL: B1 VL with S58N, P100S
notes: one-arm IgG as m2
B12: GLS3000 Q27D (antibody, name in Kabat numbering, V domains shown)
VH: B1 VH
VL: B1 VL with Q27D, S58N
notes: one-arm IgG as m2
B13: GLS3000 Q27E (antibody, name in Kabat numbering, V domains shown)
VH: B1 VH
VL: B1 VL with Q27E, S58N
notes: one-arm IgG as m2
B14: GLS3000 Q27L (antibody, name in Kabat numbering, V domains shown)
VH: B1 VH
VL: B1 VL with Q27L, S58N
notes: one-arm IgG as m2
B15: GLS3000 Q27P (antibody, name in Kabat numbering, V domains shown)
VH: B1 VH
VL: B1 VL with Q27P, S58N
notes: one-arm IgG as m2
B16: GLS3000 Q27R (antibody, name in Kabat numbering, V domains shown)
VH: B1 VH
VL: B1 VL with Q27R, S58N
notes: one-arm IgG as m2
B17: GLS3000 Q90A (antibody, name in Kabat numbering, V domains shown)
VH: B1 VH
VL: B1 VL with S58N, Q95A
notes: one-arm IgG as m2
B18: GLS3000 Q90D (antibody, name in Kabat numbering, V domains shown)
VH: B1 VH
VL: B1 VL with S58N, Q95D
notes: one-arm IgG as m2
B19: GLS3000 Q90E (antibody, name in Kabat numbering, V domains shown)
VH: B1 VH
VL: B1 VL with S58N, Q95E
notes: one-arm IgG as m2
B20: GLS3000 Q90P (antibody, name in Kabat numbering, V domains shown)
VH: B1 VH
VL: B1 VL with S58N, Q95P
notes: one-arm IgG as m2
B21: GLS3000 Q90S (antibody, name in Kabat numbering, V domains shown)
VH: B1 VH
VL: B1 VL with S58N, Q95S
notes: one-arm IgG as m2
B22: GLS3000 Q90Y (antibody, name in Kabat numbering, V domains shown)
VH: B1 VH
VL: B1 VL with S58N, Q95Y
notes: one-arm IgG as m2
B23: GLS3000 Q93A (antibody, name in Kabat numbering, V domains shown)
VH: B1 VH
VL: B1 VL with S58N, Q98A
notes: one-arm IgG as m2
B24: GLS3000 Q93D (antibody, name in Kabat numbering, V domains shown)
VH: B1 VH
VL: B1 VL with S58N, Q98D
notes: one-arm IgG as m2
B25: GLS3000 Q93E (antibody, name in Kabat numbering, V domains shown)
VH: B1 VH
VL: B1 VL with S58N, Q98E
notes: one-arm IgG as m2
B26: GLS3000 Q93P (antibody, name in Kabat numbering, V domains shown)
VH: B1 VH
VL: B1 VL with S58N, Q98P
notes: one-arm IgG as m2
B27: GLS3000 Q93R (antibody, name in Kabat numbering, V domains shown)
VH: B1 VH
VL: B1 VL with S58N, Q98R
notes: one-arm IgG as m2
B28: GLS3000 Q93S (antibody, name in Kabat numbering, V domains shown)
VH: B1 VH
VL: B1 VL with S58N, Q98S
notes: one-arm IgG as m2
B29: GLS3000 Q93Y (antibody, name in Kabat numbering, V domains shown)
VH: B1 VH
VL: B1 VL with S58N, Q98Y
notes: one-arm IgG as m2
B30: GLS3000 R24A (antibody, name in Kabat numbering, V domains shown)
VH: B1 VH
VL: B1 VL with R24A, S58N
notes: one-arm IgG as m2
B31: GLS3000 R24D (antibody, name in Kabat numbering, V domains shown)
VH: B1 VH
VL: B1 VL with R24D, S58N
notes: one-arm IgG as m2
B32: GLS3000 R24E (antibody, name in Kabat numbering, V domains shown)
VH: B1 VH
VL: B1 VL with R24E, S58N
notes: one-arm IgG as m2
B33: GLS3000 R24G (antibody, name in Kabat numbering, V domains shown)
VH: B1 VH
VL: B1 VL with R24G, S58N
notes: one-arm IgG as m2
B34: GLS3000 R24P (antibody, name in Kabat numbering, V domains shown)
VH: B1 VH
VL: B1 VL with R24P, S58N
notes: one-arm IgG as m2
B35: GLS3000 R24Q (antibody, name in Kabat numbering, V domains shown)
VH: B1 VH
VL: B1 VL with R24Q, S58N
notes: one-arm IgG as m2
B36: GLS3000 R24S (antibody, name in Kabat numbering, V domains shown)
VH: B1 VH
VL: B1 VL with R24S, S58N
notes: one-arm IgG as m2
B37: GLS3000 R24T (antibody, name in Kabat numbering, V domains shown)
VH: B1 VH
VL: B1 VL with R24T, S58N
notes: one-arm IgG as m2
B38: GLS3000 R24Y (antibody, name in Kabat numbering, V domains shown)
VH: B1 VH
VL: B1 VL with R24Y, S58N
notes: one-arm IgG as m2
B39: GLS3000 R29A (antibody, name in Kabat numbering, V domains shown)
VH: B1 VH
VL: B1 VL with R34A, S58N
notes: one-arm IgG as m2
B40: GLS3000 R29D (antibody, name in Kabat numbering, V domains shown)
VH: B1 VH
VL: B1 VL with R34D, S58N
notes: one-arm IgG as m2
B41: GLS3000 R29G (antibody, name in Kabat numbering, V domains shown)
VH: B1 VH
VL: B1 VL with R34G, S58N
notes: one-arm IgG as m2
B42: GLS3000 R29I (antibody, name in Kabat numbering, V domains shown)
VH: B1 VH
VL: B1 VL with R34I, S58N
notes: one-arm IgG as m2
B43: GLS3000 R29L (antibody, name in Kabat numbering, V domains shown)
VH: B1 VH
VL: B1 VL with R34L, S58N
notes: one-arm IgG as m2
B44: GLS3000 R29P (antibody, name in Kabat numbering, V domains shown)
VH: B1 VH
VL: B1 VL with R34P, S58N
notes: one-arm IgG as m2
B45: GLS3000 R29S (antibody, name in Kabat numbering, V domains shown)
VH: B1 VH
VL: B1 VL with R34S, S58N
notes: one-arm IgG as m2
B46: GLS3000 R29T (antibody, name in Kabat numbering, V domains shown)
VH: B1 VH
VL: B1 VL with R34T, S58N
notes: one-arm IgG as m2

These binders were tested against T1, CD3 epsilon homodimer protein (UniProt P07766 23-126) (assay: SPR Biacore T200, CD3e homodimer on chip, vs unaltered GLS3000 antibody).
T1 construct: also called CD3 (CD3 epsilon)
T1 sequence (P07766 23-126): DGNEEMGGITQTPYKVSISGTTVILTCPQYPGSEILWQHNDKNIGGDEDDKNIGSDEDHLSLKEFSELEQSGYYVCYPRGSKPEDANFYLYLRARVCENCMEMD

Row | Binder | ratio of amounts bound (Z=Y/X)
1 | B1 | 0.69
2 | B2 | 0.56
3 | B3 | 0.56
4 | B4 | 0.81
5 | B5 | 0.67
6 | B6 | 0.63
7 | B7 | 0.24
8 | B8 | 0.39
9 | B9 | 0.37
10 | B10 | 0.24
11 | B11 | 0.43
12 | B12 | 0.85
13 | B13 | 0.88
14 | B14 | 0.92
15 | B15 | 0.29
16 | B16 | 1.19
17 | B17 | 0.5
18 | B18 | 0.19
19 | B19 | 0.86
20 | B20 | 0.27
21 | B21 | 0.73
22 | B22 | 0.17
23 | B23 | 0.85

Row | Binder | ratio of amounts bound (Z=Y/X)
24 | B24 | 0.72
25 | B25 | 0.75
26 | B26 | 0.25
27 | B27 | 1.13
28 | B28 | 0.96
29 | B29 | 0.87
30 | B30 | 0.86
31 | B31 | 0.75
32 | B32 | 0.83
33 | B33 | 0.89
34 | B34 | 0.7
35 | B35 | 0.9
36 | B36 | 0.89
37 | B37 | 0.88
38 | B38 | 0.87
39 | B39 | 0.63
40 | B40 | 0.41
41 | B41 | 0.67
42 | B42 | 0.37
43 | B43 | 0.56
44 | B44 | 0.31
45 | B45 | 0.68
46 | B46 | 0.63
